The results in this text go back to patent publication US20230416365A1 (Hoffmann-La Roche, published 2023).

In experiment [1] the target is T1, recombinant CD79b-His (Sinobiological #29750-H08H) (UniProt P40259 29-159).
T1 construct: bought; whole entry named, limits unknown; also called soluble recombinant CD79b-His
T1 sequence (looked up): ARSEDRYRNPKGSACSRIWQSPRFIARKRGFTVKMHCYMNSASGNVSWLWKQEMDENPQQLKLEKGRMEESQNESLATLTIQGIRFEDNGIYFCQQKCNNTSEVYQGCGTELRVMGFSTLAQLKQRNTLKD
The experiment in a line: SPR, Biacore T200, CD79b-His captured by anti-penta-His on CM5, bispecific as analyte. A general note: SPR reads the build-up and loss of mass on a sensor chip optically.

Experiment [2] concerns the target T2, human FAP on 3T3-huFAP cells (clone 19) (human, UniProt Q12884 1-760). As to the kind of experiment: flow cytometry on 3T3-huFAP cells, median fluorescence intensity.
Experiment [3] has as its target T2, human FAP on 3T3-huFAP cells (clone 19). The experiment in a line: flow cytometry on 3T3-huFAP cells, PE anti-human secondary antibody, median fluorescence intensity.
For experiment [4], the target named is T3, human CEA (CEACAM5), form in the assay not stated (human, UniProt P06731 35-685, limits assumed).
T3 sequence: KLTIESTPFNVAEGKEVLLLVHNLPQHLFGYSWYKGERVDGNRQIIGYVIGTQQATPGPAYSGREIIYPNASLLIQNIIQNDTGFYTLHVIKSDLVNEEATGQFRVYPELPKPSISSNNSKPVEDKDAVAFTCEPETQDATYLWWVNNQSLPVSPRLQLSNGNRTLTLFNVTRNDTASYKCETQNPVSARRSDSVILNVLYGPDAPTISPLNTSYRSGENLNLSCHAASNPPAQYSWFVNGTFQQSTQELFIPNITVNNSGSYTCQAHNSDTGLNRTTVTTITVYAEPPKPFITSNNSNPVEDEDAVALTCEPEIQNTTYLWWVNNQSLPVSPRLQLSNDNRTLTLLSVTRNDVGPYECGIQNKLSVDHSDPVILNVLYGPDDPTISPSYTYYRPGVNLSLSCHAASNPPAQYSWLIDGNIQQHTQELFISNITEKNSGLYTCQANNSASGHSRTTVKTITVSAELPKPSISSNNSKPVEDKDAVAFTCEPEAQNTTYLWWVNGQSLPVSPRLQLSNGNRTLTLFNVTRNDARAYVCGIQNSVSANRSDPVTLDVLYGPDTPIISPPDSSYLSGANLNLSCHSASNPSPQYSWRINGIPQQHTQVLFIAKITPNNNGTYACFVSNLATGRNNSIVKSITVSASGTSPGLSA
As to the kind of experiment: SPR.

B1: CD79b (huMA79b.v28)-CD28 (SA_v15) 1+1 (Molecule F of Example 18; 18F) (bispecific antibody, human IgG1, kappa, L234A L235A)
heavy 1: not shown
light 1: not shown
heavy 2: DIQLTQSPSSLSASVGDRVTITCKASQSVDYEGDSFLNWYQQKPGKAPKLLIYAASNLESGVPSRFSGSGSGTDFTLTISSLQPEDFATYYCQQSNEDPLTFGQGTKVEIKSSASTKGPSVFPLAPSSKSTSGGTAALGCLVKDYFPEPVTVSWNSGALTSGVHTFPAVLQSSGLYSLSSVVTVPSSSLGTQTYICNVNHKPSNTKVDKKVEPKSCDKTHTCPPCPAPEAAGGPSVFLFPPKPKDTLMISRTPEVTCVVVDVSHEDPEVKFNWYVDGVEVHNAKTKPREEQYNSTYRVVSVLTVLHQDWLNGKEYKCKVSNKALGAPIEKTISKAKGQPREPQVCTLPPSRDELTKNQVSLSCAVKGFYPSDIAVEWESNGQPENNYKTTPPVLDSDGSFFLVSKLTVDKSRWQQGNVFSCSVMHEALHNHYTQKSLSLSP
light 2: EVQLVESGGGLVQPGGSLRLSCAASGYTFSSYWIEWVRQAPGKGLEWIGEILPGGGDTNYNEIFKGRATFSADTSKNTAYLQMNSLRAEDTAVYYCTRRVPIRLDYWGQGTLVTVSSASVAAPSVFIFPPSDEQLKSGTASVVCLLNNFYPREAKVQWKVDNALQSGNSQESVTEQDSKDSTYSLSSTLTLSKADYEKHKVYACEVTHQGLSSPVTKSFNRGEC
notes: huIgG1 PG-LALA CrossFab; also called P1AE9039; CD79b-CD28
The term Kd denotes the constant that tells how readily two partners part at equilibrium. As a reminder, the koff is a measure of how fast the partners let go of each other. A word on the kon: it is a measure of how fast the partners come together. B1: in experiment [1], the Kd was 76 nM, the koff was determined as 0.0195 s⁻¹ and the kon is 257000 M⁻¹ s⁻¹.

B2: FAP-CD28SA 2+2 (P1AD4493) (bispecific antibody, human IgG1, kappa, L234A L235A)
CD28(SA) light chain VL-CL RK: not shown
heavy chain CD28(SA) VHCH1 EE - Fc PGLALA - FAP(4B9) VHCL: not shown
FAP(4B9) VLCH1: EIVLTQSPGTLSLSPGERATLSCRASQSVTSSYLAWYQQKPGQAPRLLINVGSRRATGIPDRFSGSGSGTDFTLTISRLEPEDFAVYYCQQGIMLPPTFGQGTKVEIKSSASTKGPSVFPLAPSSKSTSGGTAALGCLVKDYFPEPVTVSWNSGALTSGVHTFPAVLQSSGLYSLSSVVTVPSSSLGTQTYICNVNHKPSNTKVDKKVEPKSCD
notes: bivalent for CD28 and bivalent for FAP; copy numbers follow from the 2+2 format; also called Molecule F; FAP(4B9)-CD28(SA) 2+2
A word on the EC50 (read off the curve): it is the concentration needed to bring the measured effect to its halfway point. A low value points to greater potency. For B2, the concentration for a half-maximal effect (EC50 (read off the curve)) in experiment [2] and in experiment [3] was ~2 nM each time.

B3: humanized CEA antibody A5H1EL1D (format in the assay not stated) (antibody, V domains shown)
VH: EVQLLESGGGLVQPGGSLRLSCAASGFTFTDYYMNWVRQAPGKGLEWLGFIGNKANAYTTEYSASVKGRFTISRDKSKNTLYLQMNSLRAEDTATYYCTRDRGLRFYFDYWGQGTTVTVSS
VL: EIVLTQSPATLSLSPGERATLSCRASSSVTYIHWYQQKPGQAPRSWIYATSNLASGIPARFSGSGSGTDFTLTISSLEPEDFAVYYCQHWSSKPPTFGQGTKLEIK
notes: heavy chain with VH variant 3-23A5-1E and Ckappa light chain with VL variant A5-L1D; also called huA5B7
In the case of B3, the equilibrium dissociation constant (Kd) in experiment [4] is ~2.5 nM.

B4: FAP-CD28 1+4 (bispecific antibody, human IgG1, kappa, L234A L235A)
CD28(SA) light chain: not shown
heavy chain CD28(SA) VHCH-VHCH - Fc knob - FAP(4B9) VH: not shown
heavy chain CD28(SA) VHCH-VHCH - Fc hole - FAP(4B9) VL: QVQLVQSGAEVKKPGASVKVSCKASGYTFTSYYIHWVRQAPGQGLEWIGCIYPGNVNTNYNEKFKDRATLTVDTSISTAYMELSRLRSDDTAVYFCTRSHYGLDWNFDVWGQGTTVTVSSASTKGPSVFPLAPSSKSTSGGTAALGCLVKDYFPEPVTVSWNSGALTSGVHTFPAVLQSSGLYSLSSVVTVPSSSLGTQTYICNVNHKPSNTKVDKKVEPKSCDGGGGSGGGGSQVQLVQSGAEVKKPGASVKVSCKASGYTFTSYYIHWVRQAPGQGLEWIGCIYPGNVNTNYNEKFKDRATLTVDTSISTAYMELSRLRSDDTAVYFCTRSHYGLDWNFDVWGQGTTVTVSSASTKGPSVFPLAPSSKSTSGGTAALGCLVKDYFPEPVTVSWNSGALTSGVHTFPAVLQSSGLYSLSSVVTVPSSSLGTQTYICNVNHKPSNTKVDKKVEPKSCDKTHTCPPCPAPEAAGGPSVFLFPPKPKDTLMISRTPEVTCVVVDVSHEDPEVKFNWYVDGVEVHNAKTKPREEQYNSTYRVVSVLTVLHQDWLNGKEYKCKVSNKALGAPIEKTISKAKGQPREPQVCTLPPSRDELTKNQVSLSCAVKGFYPSDIAVEWESNGQPENNYKTTPPVLDSDGSFFLVSKLTVDKSRWQQGNVFSCSVMHEALHNHYTQKSLSLSPGGGGGSGGGGSGGGGSGGGGSEIVLTQSPGTLSLSPGERATLSCRASQSVTSSYLAWYQQKPGQAPRLLINVGSRRATGIPDRFSGSGSGTDFTLTISRLEPEDFAVYYCQQGIMLPPTFGQGTKVEIK
notes: tetravalent for CD28, monovalent for FAP; also called Molecule D; FAP(4B9)-CD28(SA) 1+4
For the molecule B4, the binding result in experiment [2] is reported as “binds”.
